Assay results as given in patent publication EP4613280A1 (Plantibodies, dated 2025).

Molecular target: T1, murine PD-1 receptor (mouse, UniProt Q02242 25-288)
T1 construct: Endogenous protein in tissue lysates, detected as a 50 kDa band on a western blot; also called mouse PD-1; mouse PD-1 receptor
T1 sequence (looked up): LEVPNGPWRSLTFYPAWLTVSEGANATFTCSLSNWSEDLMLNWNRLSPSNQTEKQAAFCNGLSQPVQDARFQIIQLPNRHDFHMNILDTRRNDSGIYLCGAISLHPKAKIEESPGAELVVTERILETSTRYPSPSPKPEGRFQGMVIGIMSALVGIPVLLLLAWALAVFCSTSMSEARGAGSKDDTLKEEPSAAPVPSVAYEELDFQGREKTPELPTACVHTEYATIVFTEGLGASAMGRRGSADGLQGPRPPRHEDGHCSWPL
Assay: western blot of mouse liver and lung lysates probed with nivolumab

binding result: binds
B1: human recombinant Nivolumab (Thermofischer MA5-41974) (antibody, human IgG4 S228P, kappa, V domains shown)
VH: QVQLVESGGGVVQPGRSLRLDCKASGITFSNSGMHWVRQAPGKGLEWVAVIWYDGSKRYYADSVKGRFTISRDNSKNTLFLQMNSLRAEDTAVYYCATNDDYWGQGTLVTVSS
VL: EIVLTQSPATLSLSPGERATLSCRASQSVSSYLAWYQQKPGQAPRLLIYDASNRATGIPARFSGSGSGTDFTLTISSLEPEDFAVYYCQQSSNWPRTFGQGTKVEIKR
notes: Bought reagent, described as a fully humanized monoclonal antibody produced in mammalian cells such as HEK293; also called human Nivolumab; mammalian cell produced nivolumab (anti-PD1)
